Experimental data: PMC3627597
Like-named read-outs stand apart in the source and are kept apart here.

T1: BAFF-R (B-cell activating factor receptor) (human, UniProt Q96RJ3 1-76)
T1 sequence: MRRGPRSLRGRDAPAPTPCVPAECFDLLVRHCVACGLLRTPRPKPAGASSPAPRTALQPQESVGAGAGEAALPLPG

B1: R-1 aptamer (structured_RNA)
RNA: GGGAGGACGAUGCGGGAGGCUCAACAAUGAUAGAGCCCGCAAUGUUGAUAGUUGUGCCCAGUCUGCAGACGACUCGCCCGA
modifications: 2'-F U and C
B2: R-1-STAT3 27-mer OVH chimera (structured_RNA)
RNA 1: GGGAGGACGAUGCGGGAGGCUCAACAAUGAUAGAGCCCGCAAUGUUGAUAGUUGUGCCCAGUCUGCAGACGACUCGCCCGAUUUUUUUUGAGAACGGAAGCUGCAGAAAGAUACGA
RNA 2: GUAUCUUUCUGCAGCUUCCGUUCUC
modifications: 2'-F U and C in aptamer-sense strand
B3: R-14 aptamer (structured_RNA)
RNA: GGGAGGACGAUGCGGAUAACUAUUGUGCUAGAGGGCUUAUUUAUGUGAGCCGGUUGAUAGUUGCGCAGACGACUCGCCCGA
modifications: 2'-F U and C
B4: R-22 aptamer (structured_RNA)
RNA: GGGAGGACGAUGCGGAUCCUCCGAAGGUCGCGCCAACGUCACACAUUAAGCUUUUGUUCGUCUGCAGACGACUCGCCCGA
modifications: 2'-F U and C
B5: R-1-STAT3 27-mer SWAP chimera (structured_RNA)
RNA 1: GGGAGGACGAUGCGGGAGGCUCAACAAUGAUAGAGCCCGCAAUGUUGAUAGUUGUGCCCAGUCUGCAGACGACUGCCCGAUUUUUUUUUCAGUCGUAUCUUUCUGCAGCUUCCGU
RNA 2: GGAAGCUGCAGAAAGAUACGACUGA
modifications: 2'-F U and C in aptamer-antisense strand; S7 3' ga are DNA

Key:
[1] = molecular target: T1, BAFF-R (B-cell activating factor …); test: filter binding
BCMA (TNFRSF17) = BCMA (TNFRSF17) (human, UniProt Q02223 1-54); test: EMSA
BCMA (TNFRSF17), sequence (Q02223 1-54): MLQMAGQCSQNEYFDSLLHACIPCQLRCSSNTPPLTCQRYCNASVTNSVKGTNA

[2] = molecular target: T1, BAFF-R (B-cell activating factor …); test: EMSA
[3] = molecular target: T1, BAFF-R (B-cell activating factor …); test: EMSA; remark: listed apart in the source

Binder | binding signal [1] | binding result (BCMA (TNFRSF17)) | Kd [2] | Kd [3]
B1 | > 36 % RNA retained | no binding | ~47 nM | 54 nM
B2 |  |  | 35 nM | 
B3 | > 36 % RNA retained |  | ~96 nM | 
B4 | 3.6 % RNA retained |  |  | 
B5 |  |  | 56 nM | 
